Results from patent US9096654B2, “Peptides capable of modulating the function of TIRC7” (CELLACT PHARMA GMBH, priority 2005, dated 2015).

Key:
PBMC = assay: Mixed lymphocyte reaction (MLR): inhibition of proliferation of stimulated PBMC by TIRC7 derived peptides; assay type: cell-based; conditions: mitomycin-inactivated PBMC (stimulator), CFSE-stained PBMC (responder), 6 days incubation with peptide in PBS, pH 7.3
Procedure: As described in Example 1 herein, peptides were tested for their ability to inhibit proliferation of mitomycin-stimulated PBMCs.
Freshly isolated PBMC were inactivated with mitomycin (stimulator), or stained with CFSE (responder). Cells were incubated for 6 days with the peptides as described in FIG. 1, dissolved in PBS and titrated to pH 7.3. Subsequently, an in vitro assay, mixed lymphocyte reaction (MLR), was performed essentially as described in international applications WO99/11782 and WO03/025000 to analyze the potency of the tested TIRC7 derived peptides to inhibit the immune response. For all peptides shown in FIG. 1 substantial inhibition of proliferation could be observed.

activated T-cells = conditions: dose dependent, cited from earlier work

D46M: synthetic peptide derived from the third extracellular domain of TIRC7 protein (SEQ ID NO: 3, FIG. 1) (DRQEENKAGLLDLPDASVNGWSSDEEKAGGLDDEEEAELVPSEVLM; TIRC7 peptide)
inhibition of proliferation (PBMC): Particular advantageous

B1: TIRC7: in vitro translated T-cell immune response cDNA 7 protein, involved in signal transduction of T-cell activation and/or proliferation (protein, UniProt Q13488 1-830, looked up)
V-type proton ATPase 116 kDa …: MGSMFRSEEVALVQLFLPTAAAYTCVSRLGELGLVEFRDLNASVSAFQRRFVVDVRRCEELEKTFTFLQEEVRRAGLVLPPPKGRLPAPPPRDLLRIQEETERLAQELRDVRGNQQALRAQLHQLQLHAAVLRQGHEPQLAAAHTDGASERTPLLQAPGGPHQDLRVNFVAGAVEPHKAPALERLLWRACRGFLIASFRELEQPLEHPVTGEPATWMTFLISYWGEQIGQKIRKITDCFHCHVFPFLQQEEARLGALQQLQQQSQELQEVLGETERFLSQVLGRVLQLLPPGQVQVHKMKAVYLALNQCSVSTTHKCLIAEAWCSVRDLPALQEALRDSSMEEGVSAVAHRIPCRDMPPTLIRTNRFTASFQGIVDAYGVGRYQEVNPAPYTIITFPFLFAVMFGDVGHGLLMFLFALAMVLAENRPAVKAAQNEIWQTFFRGRYLLLLMGLFSIYTGFIYNECFSRATSIFPSGWSVAAMANQSGWSDAFLAQHTMLTLDPNVTGVFLGPYPFGIDPIWSLAANHLSFLNSFKMKMSVILGVVHMAFGVVLGVFNHVHFGQRHRLLLETLPELTFLLGLFGYLVFLVIYKWLCVWAARAASAPSILIHFINMFLFSHSPSNRLLYPRQEVVQATLVVLALAMVPILLLGTPLHLLHRHRRRLRRRPADRQEENKAGLLDLPDASVNGWSSDEEKAGGLDDEEEAELVPSEVLMHQAIHTIEFCLGCVSNTASYLRLWALSLAHAQLSEVLWAMVMRIGLGLGREVGVAAVVLVPIFAAFAVMTVAILLVMEGLSAFLHALRLHWVEFQNKFYSGTGYKLSPFTFAATDD
modifications: TIRC7 in vitro translated
suppression of proliferation of activated T-cells in MLR (activated T-cells; MLR): significantly suppressed
suppression of proliferation of T-cells (activated T-cells; in response to alloactivation in a mixed lymphocyte culture or in response to mitogens): efficiently suppress

B2: A61V: synthetic peptide derived from the third extracellular domain of TIRC7 protein (SEQ ID NO: 4, FIG. 1) (peptide)
chain: ADRQEENKAGLLDLPDASVNGWSSDEEKAGGLDDEEEAELVPSEVLMHQAIHTIEFCLGCV
modifications: TIRC7 peptide
inhibition of proliferation (PBMC): Particular advantageous
